# Results as given in patent publication US12319739 (F STAR DELTA, dated 2025).
# Residue numbers refer to the chain shown, from its start.
# T1: cMSLN-His-Avi (cynomolgus, single biotin on the Avi tag in the biotinylated form)
# T1 construct: Monomeric; also called cyno MSLN-His-Avi; cMSLN-Avi-His
# T1 chain: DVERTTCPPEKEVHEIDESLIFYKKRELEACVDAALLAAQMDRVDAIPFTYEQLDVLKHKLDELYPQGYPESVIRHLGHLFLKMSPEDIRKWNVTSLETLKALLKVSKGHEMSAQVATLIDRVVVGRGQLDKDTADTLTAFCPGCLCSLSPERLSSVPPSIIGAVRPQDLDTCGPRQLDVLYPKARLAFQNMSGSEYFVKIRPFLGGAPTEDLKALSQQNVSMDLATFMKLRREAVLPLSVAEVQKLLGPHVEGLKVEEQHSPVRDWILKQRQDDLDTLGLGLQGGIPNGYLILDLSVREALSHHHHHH
# B1: FS22-172-003-AA/FS28-024 (bispecific antibody, human IgG1, kappa, L234A L235A, V domains shown)
# VH: EVQLLESGGGLVQPGGSLRLSCAASGFTLSYSSMSWVRQAPGKGLEWVSFITPSTGYTHYADSVKGRFTISRDNSKNTLYLQMNSLRAEDTAVYYCARRALTFDYWGQGTLVTVSS
# VL: EIVLTQSPGTLSLSPGERATLSCRASQSVSSSYLAWYQQKPGQAPRLLIYGASSRATGIPDRFSGSGSGTDFTLTISRLEPEDFAVYYCQQASSYPLTFGQGTKVEIKR
# notes: IgG1 mAb^2 with LALA; also called FS28-024 in CD137 mAb^2 format
# B2: FS22-172-003-AA/FS28-256 (bispecific antibody, human IgG1, kappa, L234A L235A, V domains shown)
# VH: EVQLLESGGGLVQPGGSLRLSCAASGFTFTNTYMSWVRQAPGKGLEWVSNISPTYSTTNYADSVKGRFTISRDNSKNTLYLQMNSLRAEDTAVYYCARYNSYQGGLDYWGQGTLVTVSS
# VL: B1 VL with A92S, S93Y, S94Y, L97I
# notes: IgG1 mAb^2 with LALA
# B3: FS22-172-003-AA/FS28-256-021 (bispecific antibody, human IgG1, kappa, L234A L235A, V domains shown)
# VH: B2 VH with N31H, S75N, S101A, Q103H, G104A, G105A
# VL: B1 VL with A92H, S93N, S94Q, L97N
# notes: IgG1 mAb^2 with LALA
# B4: FS22-172-003-AA/FS28-256-012 (bispecific antibody, human IgG1, kappa, L234A L235A, V domains shown)
# VH: B2 VH with N31H, S75N, S101A, Q103H, G104A, G105A
# VL: B1 VL with A92S, S93Y, S94Y, L97I
# notes: IgG1 mAb^2 with LALA
# B5: FS22-172-003-AA/FS28-256-023 (bispecific antibody, human IgG1, kappa, L234A L235A, V domains shown)
# VH: B2 VH with N31Q, S101A, G104I
# VL: B1 VL with A92H, S93N, S94Q, L97N
# notes: IgG1 mAb^2 with LALA
# B6: FS22-172-003-AA/FS28-024-051 (bispecific antibody, human IgG1, kappa, L234A L235A, V domains shown)
# VH: B1 VH with T102I
# VL: B1 VL
# notes: IgG1 mAb^2 with LALA
# B7: FS22-172-003-AA/FS28-024-053 (bispecific antibody, human IgG1, kappa, L234A L235A, V domains shown)
# VH: B1 VH with T102V
# VL: B1 VL
# notes: IgG1 mAb^2 with LALA
# B8: FS22-172-003-AA/FS28-256-018 (bispecific antibody, human IgG1, kappa, L234A L235A, V domains shown)
# VH: B2 VH with N31Q, S101A, G104I
# VL: B1 VL with A92S, S93Y, S94Y, L97I
# notes: IgG1 mAb^2 with LALA
# B9: FS22-172-003-AA/FS28-256-014 (bispecific antibody, human IgG1, kappa, L234A L235A, V domains shown)
# VH: B2 VH with N31D, S101A, Q103A, G104A
# VL: B1 VL with A92S, S93Y, S94Y, L97I
# notes: IgG1 mAb^2 with LALA
# B10: FS22-172-003-AA/FS28-256-005 (bispecific antibody, human IgG1, kappa, L234A L235A, V domains shown)
# VH: B2 VH with N31E
# VL: B1 VL with S93L, S94G, L97H
# notes: IgG1 mAb^2 with LALA
# B11: FS22-172-003-AA/FS28-185 (bispecific antibody, human IgG1, kappa, L234A L235A, V domains shown)
# VH: EVQLLESGGGLVQPGGSLRLSCAASGFTFTTSAMSWVRQAPGKGLEWVSRINPYEGETNYADSVKGRFTISRDNSKNTLYLQMNSLRAEDTAVYYCARGWSIATYYKSAMDYWGQGTLVTVSS
# VL: EIVLTQSPGTLSLSPGERATLSCRASQSVSSSYLAWYQQKPGQAPRLLIYGASSRATGIPDRFSGSGSGTDFTLTISRLEPEDFAVYYCQQSSYSAPVTFGQGTKVEIKR
# notes: IgG1 mAb^2 with LALA; also called FS28-185 in CD137 mAb^2 format
# Target: T2, endogenous cell surface human MSLN (human, UniProt Q13421 296-598)
# T2 construct: whole, on cells; The cell line is named under assay; also called cell-surface MSLN on NCI-H226, OVCAR-3 and AsPC-1 cells
# Test: flow cytometry, NCI-H226 cells
# Description: (§1) To confirm binding to cell surface MSLN, mAb² listed in Table 9 were analysed for binding to endogenous cell surface MSLN on the human lung cancer cell line NCI-H226. In addition, and because MSLN can be found in blood in a shed soluble form, there is a risk that this circulating MSLN might affect exposure and ultimately potency of our mAb². To confirm that presence of soluble MSLN has minimal impact, additional binding experiments to NCI-H226 cells were performed in the presence of 20 nM soluble MSLN which is 10-20 times the level of soluble MSLN found to be of diagnostic value for defining malignant mesothelioma and lung cancer patients as MSLN positive (Cui et al., 2014). Briefly, NCI-H226 cells (ATCC CRL-5826) were harvested from T175 cell culture flasks using Accutase (Gibco, A11105-01).
# (§2) In both cases, cells were centrifuged at 1200 rpm for 3 min and resuspended in ice cold FACS buffer made up of DPBS (Life Technologies, 14190169) and 1% BSA (Sigma-Aldrich, A7906) at 2×10⁶ cells/ml and 50 μl per well was seeded in a 96-well V-bottom plate (Costar, 3894). All antibodies tested were diluted in FACS buffer in 120 μl at a concentration range of 0.01-200 nM (4-fold dilutions). The NCI-H226 cells were then centrifuged, supernatant removed and cells resuspended in 100 μl of each mAb dilution and incubated at 4° C. for 45 min. Cells were washed twice by centrifugation with 150 μl FACS buffer, resuspended in 100 μl containing goat anti-human IgG (γ-chain specific) F(ab')2 fragment-R-Phycoerythrin antibody (Sigma, P8047) diluted 1:1000 in FACS buffer and incubated at 4° C. for 45 min. The cells were washed once with 150 μl FACS buffer and then with 150 μl DPBS, resuspended in 150 μl DPBS containing DAPI (Biotium, 40043) at 1:10.000 and read on the BDCantoII or iQue (Intellicyt).
# T2 sequence (Q13421 other isoform, or with tags, fused parts or gaps limits assumed): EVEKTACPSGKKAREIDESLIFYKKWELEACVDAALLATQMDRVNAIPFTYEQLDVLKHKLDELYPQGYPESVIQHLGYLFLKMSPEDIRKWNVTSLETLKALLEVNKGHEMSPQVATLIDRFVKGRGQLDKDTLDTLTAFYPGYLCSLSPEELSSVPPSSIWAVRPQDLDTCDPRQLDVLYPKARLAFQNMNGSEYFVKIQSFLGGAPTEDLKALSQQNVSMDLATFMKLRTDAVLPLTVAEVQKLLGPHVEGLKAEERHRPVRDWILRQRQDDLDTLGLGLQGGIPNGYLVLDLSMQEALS
EC50,Emax (MFI),Binder
0.389 nM,773000 MFI,B1
47.1 nM,174000 MFI,B2
4.02 nM,689000 MFI,B3
5.7 nM,516000 MFI,B4
1.29 nM,618000 MFI,B5
0.477 nM,768000 MFI,B6
0.579 nM,783000 MFI,B7
3.6 nM,348000 MFI,B8
0.727 nM,476000 MFI,B9
0.729 nM,441000 MFI,B10
22.9 nM,4930 MFI,B11

# Target: human CD137 on primary human CD8+ T cells (human, UniProt Q07011 24-255)
# Test: cell-based or functional assay
# Chain of human CD137 on primary human CD8+ T cells (Q07011 24-255): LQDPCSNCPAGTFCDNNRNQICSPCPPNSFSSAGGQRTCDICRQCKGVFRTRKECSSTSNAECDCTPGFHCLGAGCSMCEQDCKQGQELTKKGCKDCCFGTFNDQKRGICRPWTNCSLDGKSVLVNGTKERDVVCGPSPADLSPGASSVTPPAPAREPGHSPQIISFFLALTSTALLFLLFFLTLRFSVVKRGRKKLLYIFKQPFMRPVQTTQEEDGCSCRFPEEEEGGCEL
"Emax (IL-2 pg/ml), NCI-H226 co-culture, Donor A","Emax (IL-2 pg/ml), NCI-H226 co-culture, Donor B","IL-2 release EC50, NCI-H226 co-culture, Donor A","IL-2 release EC50, NCI-H226 co-culture, Donor B",Binder
1120 pg/mL,1380 pg/mL,0.02 nM,0.03 nM,B1
1260 pg/mL,8590 pg/mL,34 nM,22.2 nM,B2
1780 pg/mL,1000 pg/mL,0.06 nM,0.04 nM,B3
1550 pg/mL,1100 pg/mL,1.56 nM,1.67 nM,B4
1960 pg/mL,975 pg/mL,0.64 nM,0.23 nM,B5
1130 pg/mL,1800 pg/mL,0.08 nM,0.04 nM,B6
1010 pg/mL,1440 pg/mL,0.07 nM,0.04 nM,B7
1260 pg/mL,903 pg/mL,3.22 nM,3.71 nM,B8
1360 pg/mL,–,3.58 nM,–,B9
1100 pg/mL,–,1.63 nM,–,B10

# Target: T3, hMSLN-His-Avi (human, UniProt Q13421 296-598, single biotin on the Avi tag in the biotinylated form)
# T3 construct: Monomeric; also called human MSLN-His-Avi; hMSLN-Avi-His
# Test: SPR, hMSLN-His-Avi immobilised ~100 RU, mAb2 injected
# Description: (§3) 7.1 Binding of CD137/MSLN mAb2 to Human MSLN Under Avid Conditions—Antigen Capture Method Binding of all mAb^2 to MSLN immobilised on a BIAcore chip was tested to determine the binding affinity to human MSLN under avid conditions, where a high concentration of immobilised antigen is available to allow the antibody to bind avidly. […] The association time was 5 min and the dissociation time was 10 min. Running buffer was HBS-EP (GE Healthcare BR100188). Flow cells were regenerated by injecting Glycine-HCl pH1.5 at a flow rate of 30 μl/min for 30 seconds. Data were analysed by double referencing against a flow cell which was intentionally left blank (no antigen coating). The binding kinetics were fitted with a 1:1 Langmuir model to generate binding association (k_a) and dissociation (k_d) rates. Equilibrium binding constants (K_D) were calculated by dividing the dissociation rate by the association rate for each sample. Data analysis was performed with BiaEvaluation software version 3.2.
# T3 sequence (Q13421 other isoform, or with tags, fused parts or gaps): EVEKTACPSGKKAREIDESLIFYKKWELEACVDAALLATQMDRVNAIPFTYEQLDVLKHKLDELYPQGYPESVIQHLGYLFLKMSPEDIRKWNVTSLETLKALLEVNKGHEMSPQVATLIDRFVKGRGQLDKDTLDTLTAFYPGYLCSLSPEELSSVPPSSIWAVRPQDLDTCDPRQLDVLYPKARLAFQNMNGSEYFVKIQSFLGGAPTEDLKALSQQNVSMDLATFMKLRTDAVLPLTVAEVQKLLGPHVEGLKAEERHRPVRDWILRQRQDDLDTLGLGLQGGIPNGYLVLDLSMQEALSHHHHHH
row,Kd,Binder
1,0.39 nM,B1
2,36 nM,B2
3,2.3 nM,B3
4,3.12 nM,B4
5,3.09 nM,B5
6,0.4 nM,B6
7,0.42 nM,B7
8,50.5 nM,B11

# Target: T2, endogenous cell surface human MSLN
# Test: flow cytometry, NCI-H226 cells + 20 nM soluble MSLN
# Description: as §1, §2
EC50,Emax (MFI),Binder
3.05 nM,792000 MFI,B1
52.9 nM,200000 MFI,B2
9.49 nM,774000 MFI,B3
6.36 nM,486000 MFI,B4
2.13 nM,625000 MFI,B5
3.06 nM,798000 MFI,B6
2.77 nM,788000 MFI,B7
4.09 nM,357000 MFI,B8
1.09 nM,514000 MFI,B9
0.856 nM,424000 MFI,B10
28.4 nM,4930 MFI,B11

# Target: T3, hMSLN-His-Avi
# Test: ratio of SPR KDs
# Description: as §3
# (§4) The association time was 5 min and the dissociation time was 5 min. Running buffer was HBS-EP (GE Healthcare BR100188). Flow cells were regenerated by injecting Glycine-HCl pH2.1 at a flow rate of 30 μl/min for 15 seconds. The data was analysed as described in Example 7.1.
row,KD ratio in solution/immobilised human MSLN,Binder
1,119,B1
2,34,B2
3,9,B3
4,259,B4
5,18,B5
6,105,B6
7,111,B7
8,5,B11

# Target: T3, hMSLN-His-Avi
# Test: SPR, mAb2 captured on Protein G, hMSLN-His-Avi in solution
# Description: as §4
row,Kd,Binder
1,46.5 nM,B1
2,1210 nM,B2
3,19.6 nM,B3
4,809 nM,B4
5,56.2 nM,B5
6,42.4 nM,B6
7,46.4 nM,B7
8,248 nM,B11

# Target: T1, cMSLN-His-Avi
# Test: SPR, mAb2 captured on Protein G, cMSLN-His-Avi in solution
# Description: as §4
row,Kd,Binder
1,170 nM,B1
2,848 nM,B2
3,14.2 nM,B3
4,712 nM,B4
5,44.2 nM,B5
6,153 nM,B6
7,166 nM,B7
8,294 nM,B11
